The values below come from patent US20220144937A1 (JIANGSU HENGRUI MEDICINE, published 2022).

As usually defined, the IC50 is the concentration that inhibits the measured activity by half. A high value points to weaker potency in that assay. For orientation: Kd means the constant that tells how readily two partners part at equilibrium. A higher Kd goes with lower affinity.

For assay [1], the target named is T1, human IL-5 with his-tag (rhIL-5-his) (human, UniProt P05113 20-134).
T1 sequence: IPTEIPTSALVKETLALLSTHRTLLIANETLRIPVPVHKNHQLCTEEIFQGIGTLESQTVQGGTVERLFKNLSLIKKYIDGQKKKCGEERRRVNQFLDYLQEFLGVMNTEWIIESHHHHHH
The experiment in a line: cell-based or functional assay.

Assay [2] addresses T1, human IL-5 with his-tag (rhIL-5-his). Kind of assay: FACS blocking: biotin-IL-5 (100 ng/ml) binding to IL-5Rα/β-CHOS cells, antibody diluted. As for the experimental part:
Particular method was as follows: CD-CHO comprising […] and […] zeozin was used to culture CHO-S-IL-5Rα and β. During cell culture, the concentration should not exceed 3×10⁶ cells/ml. IL-5Rα/β-CHOS cells in good condition were centrifuged (at 1000 rpm, 5 min), and washed once with 10% FBS in PBS, and the cells were counted, the cell concentration was adjusted to 4×10⁶ cells/ml, and 25 μl was taken out and added into a round-bottom 96-well plate. The antibody to be tested was diluted with PBS solution comprising 10% FBS. The initial concentration was 200 μg/ml, and diluted at 1:10 for 8 gradient dilutions. 25 μl of 100 ng/ml IL-5 labeled by a biotin labeling kit (Tojin Chemical, LK03) was added, and fully mixed with 50 μl of diluted antibody at each concentration, and added into 96-well plate that has been added with cells, and incubated at 4° C. for 1 hour. After the incubation, the sample was centrifuged at 4° C. (400 g, 5 min), and the supernatant was removed, the plated was washed with 200 μl of pre-cooled PBS by centrifugation, repeated for twice; PE-Avidin secondary antibody diluted at 1:1333 was added and incubated in the dark at 4° C. for 40 min, centrifuged at 4° C.

The target is the same in assay [3]. Kind of assay: cell-based or functional assay. The source holds these as a separate data set.
For assay [4] the target is unchanged. Kind of assay: Biacore T200, antibody captured on protein A chip, antigen in flow, 1:1 Langmuir. As for the experimental part:
The affinity of the humanized IL-5 antibody to be tested with human IL-5 was measured by Biacore T200 (GE) instrument.
The protein A biosensor chip was used to affinity capture of the molecules to be tested, and then the antigen (prepared in Example 1) flowed through the surface of the chip, and the reaction signal was detected in real time with the Biacore T200 instrument to obtain the binding and dissociation curves. After the dissociation of each experimental cycle was completed, the biosensor chip was washed and regenerated with glycine-hydrochloric acid regeneration solution (pH 1.5). BIA evaluation version 4.1 GE software was used to fit the data against (1:1) Langmuir model, and the affinity value was obtained and shown in Table 14.
A general note: SPR reads the build-up and loss of mass on a sensor chip optically.

B1: h1780-017 (antibody, human IgG1, kappa, V domains shown)
VH: EVQLVQSGAEVKKPGASVKVSCKASGYTFTEYLIHWVRQAPGQGLEWIGYINPYSGGTVYNEKFKSRATLTVDKSISTAYMEFSRLRSDDTAVYYCARDGGYSDPLDYWGQGTMVTVSS
VL: DTVLTQSPATLSLSPGERATLSCRASEGLTSYMHWYQQKPGQAPRLLIYKASNLASGVPARFSGSGSGTDFTLTISSLEPEDFATYFCQQNWNDPWTFGGGTKVEIKR
In the case of B1, the “IC50 of inhibition of IL-5 induced TF1 cell proliferation” value in assay [1] came out at 0.16 nM. In addition, the half-inhibitory concentration (IC50) in assay [2] was 0.016 µg/mL. Also, the “IC50 of blocking IL-5 induced eosinophil adhesion” value in assay [3] was found to be 0.0212 µg/mL. The same molecule registered a Kd in assay [4] of 0.0778 nM.
